Laboratory results: publication PMC6703867 (Science Advances, 2019)

Target: T1, MBP-AtWRKY20 fusion protein (Arabidopsis thaliana, UniProt Q93WV0 1-557)
T1 sequence (looked up): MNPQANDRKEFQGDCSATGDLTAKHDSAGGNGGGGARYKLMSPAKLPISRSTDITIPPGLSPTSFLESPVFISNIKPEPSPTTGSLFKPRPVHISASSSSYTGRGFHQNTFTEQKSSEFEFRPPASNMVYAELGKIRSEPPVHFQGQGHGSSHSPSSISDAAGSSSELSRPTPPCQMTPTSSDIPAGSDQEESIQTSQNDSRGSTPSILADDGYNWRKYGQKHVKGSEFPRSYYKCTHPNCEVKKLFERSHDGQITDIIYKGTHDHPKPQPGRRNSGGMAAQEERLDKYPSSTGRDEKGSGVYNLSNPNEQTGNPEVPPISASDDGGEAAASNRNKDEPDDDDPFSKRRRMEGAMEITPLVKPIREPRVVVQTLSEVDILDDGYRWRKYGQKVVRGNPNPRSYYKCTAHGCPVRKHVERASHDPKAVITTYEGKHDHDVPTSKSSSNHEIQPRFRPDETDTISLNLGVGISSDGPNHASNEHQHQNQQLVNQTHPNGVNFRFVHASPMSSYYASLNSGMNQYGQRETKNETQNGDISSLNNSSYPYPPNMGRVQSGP
Assay: pull-down

B1: GST-AtORA59 (natural protein)
chain: not shown
B1: binds.
